Source: patent US6127136A, “Detection of dioxin-like compounds by detection of transformed Ah receptor/ARNT complex” (Paracelsian, Inc., priority 1996, dated 2000)

Tests used:
[1] = tested on: Ah receptor/ARNT complex (TCDD-transformed, endogenous in cytosol); experiment: ELONA; settings: EC50 is for TCDD dose, not DNA; 30 C, Ah-ELISA on neutravidin plate, anti-ARNT detection
[2] = molecular target: transformed Ah receptor/ARNT complex (Cavia porcellus, UniProt Q6J287); experiment: mini-Ah immunoassay with anti-ARNT detection of transformed Ah receptor/ARNT complex; format: biochemical, guinea pig (male Hartley, hepatic cytosol); design: AHR/ARNT heterodimer on DRE gel, anti-ARNT detection; in some samples recombinant baculovirus ARNT (Bradfield) added; settings: Example 4
Method: (§1) Male Hartley guinea pigs weighing 300-350 g were obtained from Cornell Research Animal Resources, Cornell University, Ithaca, N.Y. Guinea pigs were anaesthetized and killed with carbon dioxide. Livers were perfused in situ with 100 mL ice-cold perfusion buffer, excised, trimmed of connective tissue, poorly perfused liver and gall bladder and weighed. The liver was minced and five mL of ice-cold HEDG per gram liver were added and the whole homogenized in a 50 mL homogenizer with teflon pestle using at 200 rpm for a total of seven strokes. Crude homogenate was centrifuged at 12,500 RPM in 50 mL tubes in a JA17 rotor in a Beckman J2-MI preparative centifuge at 4 degrees C for 20 minutes.
(§2) For a typical mini-Ah immunoassay utilizing 12 samples, 5 mL of Transformed Ah Receptor Affinity Gel slurry described above was pipeted into a 50 mL conical tube. The slurry was washed with 40 mL HEDG and centifuged at 1000 g for 5 min, the supernatant withdrawn and discarded, the pellet washed with 40 mL HEDG, and centrifuged again. After the second centrifugation all but 5 mL of supernatant was withdrawn and the gel thus resuspended in the original volume. 10 mL guinea pig hepatic cytosol was thawed. The thawed cytosol was pooled and then divided into two 5 mL groups and treated with either 5 uL DMSO or 5 uL 10 uM TCDD in DMSO.
(§3) Assembly of transformation mixture:In the preferred embodiment of the mini-Ah immunoassay, each sample was composed of one 1.5 mL microfuge tube with the following sequential additions: 90 uL 4 M NaCl/HEDG, 400 uL Transformed Ah Receptor Affinity Gel slurry and 800 uL cytosol (treated with DMSO or TCDD as described above). The three components described above are the minimum components added at that step of the mini-Ah immunoassay. Any additional materials, such as ARNT, anti-ARNT and anti-Rabbit/alkaline phosphatase conjugate, were sometimes also added at this time as described in the specific examples. After assembly of the samples, the tubes were capped and the samples incubated at room temperature for 2 hours with gentle rocking to allow transformation of the Ah receptor to take place, interaction of transformed Ah receptor and ARNT, and binding of the transformed Ah receptor as a heteromer to the DRE oligonucleotide contained on the Transformed Ah Receptor Affinity Gel.
Immunoprobing of transformed Ah receptor: The nitrocellulose membrane was then removed from the ELIFA apparatus, rinsed briefly with water, and placed in 20 mL blocker containing test antibody. All antibodies were incubated with the nitrocellulose membrane for one hour at room temperature. When the test antibody was anti-Ah receptor/alkaine phosphatase conjugate, 100 uL anti-Ah receptor/alkaline phosphatase conjugate (1:200), per 20 mL blocker was used. When anti-ARNT was added to the transformation mixture, anti-Rabbit/alkaline phosphatase conjugate (Sigma, St. Louis, Mo.) diluted 1:1000 (20 uL to 20 mL blocker) was used to probe the membrane. When ARNT, anti-ARNT and anti-Rabbit or anti-ARNT and anti-Rabbit was added to the transformation mixture, the Immunoprobing step was eliminated.
Immunodetection and densitometry: In all cases the nitrocellulose membrane was rinsed prior to immunodetection 3 times for 5 min each with 100 mL TBST, briefly washed in AP development buffer and developed in freshly made BCIP/NBT developer for 5 min, whereupon the color reaction was stopped by washing the membrane in water.
Quantitative data were obtained by scanning the dried membrane in a Microtek 600ZS scanner in gray scale, 300 dpi, 0% brightness, 0% contrast. Densitometric measurements of the dot-blots were made using ScanAnalysis software (Biosoft, Cambridge U.K.).
Cytosol and DRE affinity gel are prepared as described above. Cytosol is dosed with 1:1000 v/v DMSO (-) or 1:1000 v/v 10 uM 2,3,7,8-tetrachlorodibenzo-p-dioxin in DMSO (+).
Immunoprobing of transformed Ah receptor is as described above with the following probes. […]

transformed Ah receptor = molecular target: T1, transformed Ah receptor (Cavia porcellus, UniProt Q6J287); experiment: mini-Ah immunoassay (DRE affinity gel, dot-blot spot density), with or without added recombinant ARNT; format: biochemical, guinea pig (male Hartley, hepatic cytosol)
T1 construct: TCDD-transformed receptor captured as heterodimer on DRE-oligonucleotide gel; recombinant ARNT added in some protocols
Method: as §1
Procedure for the mini-Ah Immuno Assay
Preparation of Buffers: 155 uM TCDD stock was prepared by dissolving 1 mg 2,3,7,8-tetrachloro-dibenzo-p-dioxin (Cambridge Isotope Labs) in 20 mL DMSO (dimethylsulfoxide) overnight. 10 uM working dilution of TCDD was prepared by diluting 0.129 mL of the stock with 1.871 mL DMSO. 4M NaCl/HEDG was prepared by adding 116.88 g sodium chloride to 300 mL HEDG and adjusting the volume to 500 mL with HEDG. 0.3 M NaCl/HEDG was prepared by diluting 1.5 mL 4 M NaCl/HEDG to 20 mL with HEDG 0.6 M NaCl/HEDG was prepared by diluting 3.0 mL 4 M NaCl/HEDG to 20 mL with HEDG TBST was prepared by dissolving 1.18 g Tris-base, 6.35 g Tris-HCl, 8.76 g NaCL, and 2 mL Tween 20 in 800 mL water, adjusting volume to 1000 mL. Blocker was prepared by dissolving 10 g non-fat dry milk (Carnation) in 200 mL TBST. AP development buffer was prepared by dissolving 11 g Tris-base, 1.6 g Tris-HCl, 5.84 g Sodium Chloride, 10.2 g Magnesium Chloride hexahydrate, in 800 mL water and adjusting the volume to 1000 mL. BCIP stock was prepared by dissolving 100 mg BCIP (5-Bromo-4-Chloro-3-Indolyl Phosphate) in 2 mL N,N-Dimethylformamide, aliquoting into 66 uL portions, and freezing at -20 C until use. NBT stock was prepared by dissolving 250 mg NBT (Nitro Blue Tetrazolium) in 25 mL water, aliquoting into 660 uL proportions, and storing at -20 C until use. BCIP/NBT developer was prepared immediately before use by mixing one 66 uL aliquot of BCIP and one 660 uL aliquot of NBT in 20 mL AP development buffer.
as §2, §3
Isolation transformed Ah receptor: After the 2 hour incubation the mixtures were pipetted into the empty column barrels and allowed to drain. […]

T1 sequence (Q6J287 10-846): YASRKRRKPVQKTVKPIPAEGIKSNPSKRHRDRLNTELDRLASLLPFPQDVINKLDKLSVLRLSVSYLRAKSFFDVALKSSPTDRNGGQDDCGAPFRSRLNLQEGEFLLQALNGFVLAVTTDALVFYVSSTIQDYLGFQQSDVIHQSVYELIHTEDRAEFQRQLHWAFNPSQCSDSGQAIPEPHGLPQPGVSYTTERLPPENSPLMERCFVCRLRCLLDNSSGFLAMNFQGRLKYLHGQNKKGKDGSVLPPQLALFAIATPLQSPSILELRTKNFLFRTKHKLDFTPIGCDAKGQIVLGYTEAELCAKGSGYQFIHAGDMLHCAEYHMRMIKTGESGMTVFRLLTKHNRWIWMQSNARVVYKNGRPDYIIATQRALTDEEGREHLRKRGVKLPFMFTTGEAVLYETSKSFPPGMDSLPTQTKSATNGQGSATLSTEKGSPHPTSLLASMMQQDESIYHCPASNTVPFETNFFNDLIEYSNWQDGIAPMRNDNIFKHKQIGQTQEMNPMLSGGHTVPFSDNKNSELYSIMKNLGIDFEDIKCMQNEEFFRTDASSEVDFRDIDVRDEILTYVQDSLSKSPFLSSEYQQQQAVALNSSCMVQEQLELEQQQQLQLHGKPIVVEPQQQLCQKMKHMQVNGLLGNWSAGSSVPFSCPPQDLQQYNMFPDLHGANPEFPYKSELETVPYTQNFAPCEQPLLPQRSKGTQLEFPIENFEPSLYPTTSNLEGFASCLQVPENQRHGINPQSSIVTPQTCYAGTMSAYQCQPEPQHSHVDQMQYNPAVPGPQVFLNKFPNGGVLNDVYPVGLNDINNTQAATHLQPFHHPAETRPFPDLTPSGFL
T1 sequence (Q0WXX3 1-790 partner): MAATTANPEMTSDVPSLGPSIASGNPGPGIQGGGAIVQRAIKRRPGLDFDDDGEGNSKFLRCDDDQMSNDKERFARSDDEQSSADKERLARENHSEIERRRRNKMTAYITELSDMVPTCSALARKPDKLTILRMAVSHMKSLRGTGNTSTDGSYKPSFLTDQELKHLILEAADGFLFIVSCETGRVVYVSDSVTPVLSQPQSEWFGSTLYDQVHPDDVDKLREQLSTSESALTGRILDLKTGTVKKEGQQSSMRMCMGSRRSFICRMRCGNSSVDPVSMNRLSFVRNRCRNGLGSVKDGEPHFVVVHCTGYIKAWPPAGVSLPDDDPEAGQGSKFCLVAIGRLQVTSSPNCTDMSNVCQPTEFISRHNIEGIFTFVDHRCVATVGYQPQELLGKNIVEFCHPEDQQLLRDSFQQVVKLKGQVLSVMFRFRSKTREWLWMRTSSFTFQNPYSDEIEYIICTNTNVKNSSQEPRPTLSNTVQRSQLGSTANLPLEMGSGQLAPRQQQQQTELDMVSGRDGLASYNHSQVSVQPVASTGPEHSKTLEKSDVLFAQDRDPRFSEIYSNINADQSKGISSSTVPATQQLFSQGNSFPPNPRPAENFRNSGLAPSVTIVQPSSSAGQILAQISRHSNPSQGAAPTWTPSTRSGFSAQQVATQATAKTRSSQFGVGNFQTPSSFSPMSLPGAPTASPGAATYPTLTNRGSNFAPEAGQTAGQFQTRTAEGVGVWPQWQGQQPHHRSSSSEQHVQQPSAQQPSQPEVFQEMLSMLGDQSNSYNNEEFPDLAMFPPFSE
Sequence of transformed Ah receptor/ARNT complex (Q6J287 10-846): as the sequence (Q6J287 10-846) above
Sequence of transformed Ah receptor/ARNT complex (Q0WXX3 1-790 partner): as the sequence (Q0WXX3 1-790 partner) above
Sequence of transformed Ah receptor/ARNT complex (P27540 whole entry partner, the tested form may be a part): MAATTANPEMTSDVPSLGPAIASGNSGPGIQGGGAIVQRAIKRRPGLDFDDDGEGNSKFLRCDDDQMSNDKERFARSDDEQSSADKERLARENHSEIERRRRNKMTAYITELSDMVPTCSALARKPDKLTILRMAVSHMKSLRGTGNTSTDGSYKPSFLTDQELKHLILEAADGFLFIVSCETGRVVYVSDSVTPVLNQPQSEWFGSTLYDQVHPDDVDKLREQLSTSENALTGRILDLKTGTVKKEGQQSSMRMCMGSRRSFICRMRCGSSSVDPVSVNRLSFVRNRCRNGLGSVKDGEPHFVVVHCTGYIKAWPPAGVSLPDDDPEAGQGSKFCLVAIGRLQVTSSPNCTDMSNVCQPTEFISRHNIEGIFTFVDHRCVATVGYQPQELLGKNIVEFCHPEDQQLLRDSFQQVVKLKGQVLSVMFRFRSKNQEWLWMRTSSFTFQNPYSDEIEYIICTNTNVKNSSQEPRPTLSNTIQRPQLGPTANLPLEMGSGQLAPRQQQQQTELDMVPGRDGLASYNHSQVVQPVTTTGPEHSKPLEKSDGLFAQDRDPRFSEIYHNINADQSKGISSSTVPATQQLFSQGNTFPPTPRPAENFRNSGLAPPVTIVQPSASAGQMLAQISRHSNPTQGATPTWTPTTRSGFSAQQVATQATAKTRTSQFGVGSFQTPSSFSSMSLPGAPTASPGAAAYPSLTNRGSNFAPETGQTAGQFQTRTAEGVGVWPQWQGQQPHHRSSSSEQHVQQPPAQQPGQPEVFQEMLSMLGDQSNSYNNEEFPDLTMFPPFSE

Substance | EC50 [1] [nM] | effect of ARNT addition on response [2] | effect of ARNT amount on response (transformed Ah receptor; 0.5 ug vs 2 ug ARNT, Example 2) | effect of ARNT addition on non-TCDD dependent transformation of the Ah receptor (transformed Ah receptor; ARNT 2 ug/assay, Example 1) | increase of TCDD-dependent response by ARNT addition (transformed Ah receptor; ARNT 2 ug/assay, Example 1) [%]
B-DRE (DRE-D/B-ERD) | 0.5 |  |  |  | 
ARNT: Purified recombinant ARNT (Ah Receptor Nuclear Translocator) |  | improves response | 0.5 ug arnt gave less response than 2 ug ARNT | did not increase non-TCDD dependent transformation of the Ah receptor | 354
